Here are results for one molecule from US12404345B2, “Humanized antibodies against iRHOM2” (SCIRHOM GMBH, priority 2021, dated 2025).

For one test, the system named is RH-30 cells. Put plainly: FACS binding to RH-30 cells endogenously negative for iRhom2. Also noted: species or system human. The conditions noted are these: antibody at 3 μg/ml. As to the method: In this study, binding specificity analyses of the humanized antibody 42-B-02 as a representative example of the antibodies of the invention in cell lines endogenously expressing iRhom2 were performed. The studies were conducted on RPMI-8226 cells, a human B lymphocytic cell line endogenously expressing iRhom2 but being endogenously negative for iRhom1, on THP-1 cells, a human monocytic cell line endogenously expressing both iRhom2 and iRhom1 and on RH-30 cells, a human […] cell line endogenously negative for iRhom2 but endogenously expressing iRhom1.
In brief, human RPMI-8226 cells (Deutsche Sammlung von Mikroorganismen und Zellkulturen, Germany), THP-1 cells (American Type Culture Collection, USA) and RH-30 cells (Deutsche Sammlung von Mikroorganismen und Zellkulturen, Germany) were harvested with 10 mM EDTA in PBS, washed and resuspended in FACS buffer (PBS, 3% FBS, 0.05% sodium azide), and seeded in Nunc U-bottom 96-well plates (Thermo Fisher Scientific, USA) at approximately 2×10^5 cells per well. In order to pellet cells and remove supernatants, the plates were centrifuged at 1,500 rpm and 4° C. for 3 minutes. […] Finally, cells were resuspended in 150 μl per well of FACS buffer and analyzed using a BD Accuri™ C6 Plus flow cytometer (Becton Dickinson, Germany).

Test [1] deals with LPS-induced release of endogenous TNFα. Put plainly: Mouse model for septic shock, LPS-induced TNFα release in serum of genetically humanized mice. It counts as in vivo. Conditions: antibody 250 μg/kg in 200 μL PBS injected 1h before LPS 50 μg per mouse; serum 2h after LPS. The procedure: In the following study, ELISA-based TNFα release assays were performed to verify the inhibitory effects of the antibodies of the invention on LPS-induced release of endogenous TNFα in a mouse model for septic shock. The experiment was conducted using genetically humanized mice, in which parts of the mouse genomic iRhom2 DNA (exons which encode for the antibody binding site) were replaced by the corresponding human genomic DNA sequences. All animal experiments were approved by the Institutional Animal Care and Use Committee of the Hospital for Special Surgery and Weill Cornell Medicine.
On day 1, one group of mice was injected with the antibodies of the invention at a concentration of 250 μg/kg in 200 μL PBS. A second group was injected with the same volume of PBS only (200 μl PBS per mouse). 1h later all mice were subjected to an injection of LPS (Sigma, USA) at a concentration of 50 μg/200 μL per mouse (250 ng/μL). All mice were closely monitored and euthanized after 2h by CO2 inhalation. […]
For measuring TNFα release, Mouse TNF-α Uncoated ELISA Kit (Invitrogen, USA) was used. […] The color reaction was stopped by the addition of 100 μl 2N sulfuric acid (Sigma, USA) and the ELISA plate was read at the wavelength of 450 nm using a Multiskan Titertek Plate reader (VWR, USA).

B1: 42-B-02: humanized antibody binding human iRhom2; HCVD SEQ ID NO 33, LCVD SEQ ID NO 37 (antibody, V domains shown)
VH: QVTLRESGPALVKPTQTLTLTCTFSGFSLSTFGRGVGWIRQPPGKALEWLAHIWWDDEKYYNSALKSRLTISKDTSKNQVVLTITNMDPVDTATYYCARIQNYGSNYWYFDVWGQGTLVTVSS
VL: AIQLTQSPSSLSASVGDRVTITCRASSRISYMFWYQQKPGKAPKVLIYDTSNLASGVPSRFSGSGSGTDYTLTISSLQPEDFATYYCQQWNSYPLTFGQGTKLEIK
modifications: antibody sequences
On to B1, for which the “binding to RH-30 cells (endogenously negative for iRhom2, expressing iRhom1)” value in the test with RH-30 cells was “no binding”. For the same molecule, in test [1], the “LPS-induced release of TNFα in serum of genetically humanized mice, percent release (buffer treated control animals set to 100%)” value came to 17.3%.
